Measurements reported in the supplement of paper PMC10567573.

B1: BTBD10 (parent)
chain: FVYENAKEGARNIRTSERVTLIVD
B2: ELF3 (parent)
chain: LSKEYWDCLEGKKSKHAPRGTHLW

Variants of: B1
Experiment: protein stability index of a GFP-peptide fusion (GPS, HEK-293T) (PSI 1-6); higher = more stable
Conditions: c terminus: a fixed tail appended
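Further: lentivirally expressed fusions sorted by FACS into six bins by GFP to DsRed ratio, PSI derived from sequencing read proportions per bin multiplied by bin number.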

Protein stability index: each site, then its substitutions
T20: K 2.07; P 3.04; H 2.06; L 1.48
R14: N 2.32; Q 2.08; T 2.14; F 2.38; D 2.33; E 2.18; Y 2.85; M 2.04; S 2.33
A6: K 2.13; W 2.05; S 1.78; F 1.8; T 2.5; D 2.67; M 2.08; G 1.97
R11: F 2.38; S 2.18; I 1.75; Y 1.59; A 2.29; P 1.84; Q 2.16; G 2.31
E17: T 1.23; I 2.25; C 3.19; P 1.54; M 2.82; G 3.65; Y 2.24; L 3.89; V 3.52; F 3.19; N 2.22
S16: D 2.33; R 2.34; A 1.99; K 2.09; F 1.58; C 2.02; H 1.78
E8: P 2.44; L 2.29; D 2.28; Q 1.8; C 2.11; G 1.86; R 2.83; V 1.47; I 1.87; A 1.52
A10: T 2.03; R 2.2; H 1.58; E 2.79; G 2.08; V 2.1; W 2.32; K 2.32; Q 2.05
D24: G 1.82; S 1.18; Y 2.01; T 2.5; P 2.06; V 2.35; F 2.88; R 1.93; W 3.12; E 1.65
V23: N 2.92; M 2.04; Y 1.7; E 2.89; I 1.82; A 2.26; W 1.4; H 2.26; F 1.99; T 2.16; C 2.15; S 2.25
G9: T 2.09; H 1.72; L 2.12; V 1.77; K 1.7; M 2.47; I 1.74; Y 1.41; C 1.83; N 2.15
N5: F 1.9; S 1.54; D 2.21; Q 2.64; L 1.34; R 1.95
R18: I 1.66; V 1.69; E 2.29; Q 1.79; P 2.31; C 1.83; W 2.27; M 1.97; N 2.07
F1: H 3.69; E 3.94; T 3.06; G 3.33; L 3.05; V 3.7; Q 2.9; K 3.28; D 3.29
K7: M 1.82; T 2.11; P 2.4; C 2.32; H 1.95; Y 1.75; F 1.85; D 2.58; S 2.56
N12: A 1.82; F 2.65; R 1.96; T 1.93; M 1.56; G 1.98; E 2.08; I 1.84; D 1.93; Q 1.7
I13: F 2.43; G 2.31; R 2.4; W 1.68; K 2; A 1.77; N 2.52; M 1.64; H 2.4; E 2.34; D 2.52
V2: P 3.53; F 2.31; A 2.78; M 2.6; Y 2.45; E 3.83; C 2.33; G 3.31; W 1.97; L 2.41; I 2.37
E4: I 2.35; F 1.65; K 2.25; Y 1.92; C 2.56; D 2.08; T 2.18; W 1.83; P 1.69; S 1.66
I22: G 1.72; E 3; F 2.06; Q 2.31; N 2.72; T 2.41; D 2.96; V 2.92
Y3: A 2.08; E 3.75; S 1.96; T 2.22; P 1.72; D 3.22; F 2.12; W 2.19; M 2.2
T15: R 2.06; Y 1.39; S 2.38; V 1.75; N 2.11; K 2.25; H 2.15; P 1.81; E 2.48; A 2.26
L21: V 1.64; S 2.32; Y 1.89; G 2.56; R 2.14; M 1.99
V19: I 1.61; E 2.86; W 1.53; S 2; A 2.45; C 2.49; G 2.21; Y 2.35; Q 2.6

Variants of: B2
Experiment: as above
Conditions: c terminus: a fixed tail appended

Protein stability index: each site, then its substitutions
D7: E 2.77; A 2.28; C 2.32; G 2.15; I 2.05; F 1.83; H 2.33
Y5: E 3.62; V 2.34; L 2.19; G 2.92; I 2.65; F 3.23; A 3.23; Q 2.45; P 3.37; M 3.38; S 3.3; H 3.85; D 3.41; K 3.19; C 2.91; T 2.66; W 2.66; N 3.45; R 3
K3: E 2.97; N 2.97; G 2.02; C 2.55; D 2.69; Y 2.6; P 2.56; M 2.33; F 2.1; V 2.1; L 2.57; Q 2.13; S 2.61; R 2.93; H 2.78; W 2.35; A 2.7; I 2.29; T 2.83
S2: A 2.59; F 2.26; G 3.12; N 3.13; D 3.11; K 2.28; V 2.36; M 2.48; E 3.59; T 2.98; L 1.91; H 3.04; P 2.99; I 2.26; Y 1.91; Q 2.78; C 2.29; R 2.48
E4: C 4.2; V 2.53; A 2.23; P 2.35; N 2.84; F 2.13; T 2.87; I 2.65; Y 2.16; D 2.8; H 1.89; S 2.38; M 2.56; R 1.86; L 2.06; G 1.99; K 2.11; W 1.58; Q 1.74
L1: G 3.33; Y 2; A 2.79; T 2.53; P 1.86; W 1.97; I 2.37; R 2.96; C 2.42; K 3.02; V 2.77; N 2.63; Q 2.71; S 2.67; H 2.16; D 3.2; M 2.06; E 3.35
W6: H 2.33; L 3.08; A 3.6; K 3.65; V 3.13; I 2.96; D 3.93; Y 3.22; Q 3.43; S 3.44; R 3.39; G 2.84; T 3.97; C 3.38; N 3.42; P 3.82; E 3.66; M 3.56; F 3
